# From patent US20140363428A1 (Chugai, published 2014)
# Target: T1, soluble human FcRn (heterodimer of FcRn alpha chain and beta2-microglobulin) (human, UniProt P55899 24-297; P61769 21-119)
# T1 construct: Expressed in HEK293H and purified on IgG Sepharose; also called hFcRn
# Test: SPR Biacore T100, antibody captured via protein L, hFcRn analyte, pH 7.0, 25 C;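 note: KD derived from kinetic ka and kd fits of sensorgrams, CM4 sensor chip, sodium phosphate NaCl Tween20 running buffer, buffer-only injection used as reference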
# Procedure: An appropriate amount of protein L (ACTIGEN) was immobilized onto Sensor chip CM4 (GE Healthcare) by the amino coupling method, and the chip was allowed to capture an antibody of interest. Then, diluted FcRn solutions and running buffer (as a reference solution) were injected to allow human FcRn to interact with the antibody captured on the sensor chip. The running buffer used comprised 50 mmol/l sodium phosphate, 150 mmol/l NaCl, and 0.05% (w/v) Tween20 (pH 7.0). FcRn was diluted using each buffer. The chip was regenerated using 10 mmol/l glycine-HCl (pH 1.5). Assays were carried out exclusively at 25 degrees C. The association rate constant ka (1/Ms) and dissociation rate constant kd (1/s), both of which are kinetic parameters, were calculated based on the sensorgrams obtained in the assays, and KD (M) of each antibody for human FcRn was determined from these values. Each parameter was calculated using Biacore T100 Evaluation Software (GE Healthcare).
row,Binder,Kd
1,"IgG1-F1109 (antibody, VH3-IgG1 with Fc substitutions (EU numbering) + L(WT)-CK) heavy: QVQLQESGPGLVKPSETLSLTCAVSGHSISHDHAWSWVRQPPGEGLEWIGFISYSGITNYNPSLQGRVTISRDNSKNTLYLQMNSLRAEDTAVYYCARSLARTTAMDYWGEGTLVTVSSASTKGPSVFPLAPSSKSTSGGTAALGCLVKDYFPEPVTVSWNSGALTSGVHTFPAVLQSSGLYSLSSVVTVPSSSLGTQTYICNVNHKPSNTKVDKKVEPKSCDKTHTCPPCPAPELLGGPSVFLFPPKPKDTLYISRTPEVTCVVVDVSHEDPEVKFNWYVDGVEVHNAKTKPREEQYNSTYRVVSVLTVLHQDWLNGKEYKCKVSNKALPAPIEKTISKAKGQPREPQVYTLPPSRDELTKNQVSLTCLVKGFYPSDIAVEWESNGQPENNYKTTPPVLDSDGSFFLYSKLTVDKSRWQQGNTFSCSVMHEALHYHVTQKSLSLSP light: not shown",130 nM
2,"IgG1-F1114 (antibody, VH3-IgG1 with Fc substitutions (EU numbering) + L(WT)-CK) heavy: QVQLQESGPGLVKPSETLSLTCAVSGHSISHDHAWSWVRQPPGEGLEWIGFISYSGITNYNPSLQGRVTISRDNSKNTLYLQMNSLRAEDTAVYYCARSLARTTAMDYWGEGTLVTVSSASTKGPSVFPLAPSSKSTSGGTAALGCLVKDYFPEPVTVSWNSGALTSGVHTFPAVLQSSGLYSLSSVVTVPSSSLGTQTYICNVNHKPSNTKVDKKVEPKSCDKTHTCPPCPAPELLGGPSVFLFPPKPKDTLYISRTPEVTCVVVDVSHEDPEVKFNWYVDGVEVHNAKTKPREEQYNSTYRVVSVLTVLHQDWLNGKEYKCKVSNKALPAPIEKTISKAKGQPREPQVYTLPPSRDELTKNQVSLTCLVKGFYPSDIAVEWESNGQPENNYKTTPPVLDSDGSFFLYSKLTVDKSRWQQGNVFSCSVMHEALHYHVTQKQLSLSP light: not shown",130 nM
3,"IgG1-F1116 (antibody, VH3-IgG1 with Fc substitutions (EU numbering) + L(WT)-CK) heavy: QVQLQESGPGLVKPSETLSLTCAVSGHSISHDHAWSWVRQPPGEGLEWIGFISYSGITNYNPSLQGRVTISRDNSKNTLYLQMNSLRAEDTAVYYCARSLARTTAMDYWGEGTLVTVSSASTKGPSVFPLAPSSKSTSGGTAALGCLVKDYFPEPVTVSWNSGALTSGVHTFPAVLQSSGLYSLSSVVTVPSSSLGTQTYICNVNHKPSNTKVDKKVEPKSCDKTHTCPPCPAPELLGGPSVFLFPPKPKDTLYISRTPEVTCVVVDVSHEDPEVKFNWYVDGVEVHNAKTKPREEQYNSTYRVVSVLQVLHADWLNGKEYKCKVSNKALPAPIEKTISKAKGQPREPQVYTLPPSRDELTKNQVSLTCLVKGFYPSDIAVEWESNGQPENNYKTTPPVLDSDGSFFLYSKLTVDKSRWQQGNVFNCSVMHEALHYHYTQKSLSLSP light: not shown",74 nM
4,"IgG1-F1111 (antibody, VH3-IgG1 with Fc substitutions (EU numbering) + L(WT)-CK) heavy: QVQLQESGPGLVKPSETLSLTCAVSGHSISHDHAWSWVRQPPGEGLEWIGFISYSGITNYNPSLQGRVTISRDNSKNTLYLQMNSLRAEDTAVYYCARSLARTTAMDYWGEGTLVTVSSASTKGPSVFPLAPSSKSTSGGTAALGCLVKDYFPEPVTVSWNSGALTSGVHTFPAVLQSSGLYSLSSVVTVPSSSLGTQTYICNVNHKPSNTKVDKKVEPKSCDKTHTCPPCPAPELLGGPSVFLFPPKPKDTLYISRTPEVTCVVVDVSHEDPEVKFNWYVDGVEVHNAKTKPREEQYNSTYRVVSVLTVLHQDWLNGKEYKCKVSNKALPAPIEKTISKAKGQPREPQVYTLPPSRDELTKNQVSLTCLVKGFYPSDIAVEWESNGQPENNYKTTPPVLDSDGSFFLYSKLTVDKSRWQQGNVFKCSVMHEALHYHVTQKSLSLSP light: not shown",160 nM
5,"IgG1-F1113 (antibody, VH3-IgG1 with Fc substitutions (EU numbering) + L(WT)-CK) heavy: QVQLQESGPGLVKPSETLSLTCAVSGHSISHDHAWSWVRQPPGEGLEWIGFISYSGITNYNPSLQGRVTISRDNSKNTLYLQMNSLRAEDTAVYYCARSLARTTAMDYWGEGTLVTVSSASTKGPSVFPLAPSSKSTSGGTAALGCLVKDYFPEPVTVSWNSGALTSGVHTFPAVLQSSGLYSLSSVVTVPSSSLGTQTYICNVNHKPSNTKVDKKVEPKSCDKTHTCPPCPAPELLGGPSVFLFPPKPKDTLYISRTPEVTCVVVDVSHEDPEVKFNWYVDGVEVHNAKTKPREEQYNSTYRVVSVLTVLHQDWLNGKEYKCKVSNKALPAPIEKTISKAKGQPREPQVYTLPPSRDELTKNQVSLTCLVKGFYPSDIAVEWESNGQPENNYKTTPPVLDSDGSFFLYSKLTVDKSRWQQGNVFSCSVMHEALHYHVTQKDLSLSP light: not shown",120 nM
6,"IgG1-F1112 (antibody, VH3-IgG1 with Fc substitutions (EU numbering) + L(WT)-CK) heavy: QVQLQESGPGLVKPSETLSLTCAVSGHSISHDHAWSWVRQPPGEGLEWIGFISYSGITNYNPSLQGRVTISRDNSKNTLYLQMNSLRAEDTAVYYCARSLARTTAMDYWGEGTLVTVSSASTKGPSVFPLAPSSKSTSGGTAALGCLVKDYFPEPVTVSWNSGALTSGVHTFPAVLQSSGLYSLSSVVTVPSSSLGTQTYICNVNHKPSNTKVDKKVEPKSCDKTHTCPPCPAPELLGGPSVFLFPPKPKDTLYISRTPEVTCVVVDVSHEDPEVKFNWYVDGVEVHNAKTKPREEQYNSTYRVVSVLTVLHQDWLNGKEYKCKVSNKALPAPIEKTISKAKGQPREPQVYTLPPSRDELTKNQVSLTCLVKGFYPSDIAVEWESNGQPENNYKTTPPVLDSDGSFFLYSKLTVDKSRWQQGNVFSCSVMHEALHYHVTKKSLSLSP light: not shown",120 nM
7,"IgG1-F1115 (antibody, VH3-IgG1 with Fc substitutions (EU numbering) + L(WT)-CK) heavy: QVQLQESGPGLVKPSETLSLTCAVSGHSISHDHAWSWVRQPPGEGLEWIGFISYSGITNYNPSLQGRVTISRDNSKNTLYLQMNSLRAEDTAVYYCARSLARTTAMDYWGEGTLVTVSSASTKGPSVFPLAPSSKSTSGGTAALGCLVKDYFPEPVTVSWNSGALTSGVHTFPAVLQSSGLYSLSSVVTVPSSSLGTQTYICNVNHKPSNTKVDKKVEPKSCDKTHTCPPCPAPELLGGPSVFLFPPKPKDTLYISRTPEVTCVVVDVSHEDPEVKFNWYVDGVEVHNAKTKPREEQYNSTYRVVSVLTVLHQDWLNGKEYKCKVSNKALPAPIEKTISKAKGQPREPQVYTLPPSRDELTKNQVSLTCLVKGFYPSDIAVEWESNGQPENNYKTTPPVLDSDGSFFLYSKLTVDKSRWQQGNVFNCSVMHEALHYHVTQKSLSLSP light: not shown",130 nM
8,"IgG1-F1110 (antibody, VH3-IgG1 with Fc substitutions (EU numbering) + L(WT)-CK) heavy: QVQLQESGPGLVKPSETLSLTCAVSGHSISHDHAWSWVRQPPGEGLEWIGFISYSGITNYNPSLQGRVTISRDNSKNTLYLQMNSLRAEDTAVYYCARSLARTTAMDYWGEGTLVTVSSASTKGPSVFPLAPSSKSTSGGTAALGCLVKDYFPEPVTVSWNSGALTSGVHTFPAVLQSSGLYSLSSVVTVPSSSLGTQTYICNVNHKPSNTKVDKKVEPKSCDKTHTCPPCPAPELLGGPSVFLFPPKPKDTLYISRTPEVTCVVVDVSHEDPEVKFNWYVDGVEVHNAKTKPREEQYNSTYRVVSVLTVLHQDWLNGKEYKCKVSNKALPAPIEKTISKAKGQPREPQVYTLPPSRDELTKNQVSLTCLVKGFYPSDIAVEWESNGQPENNYKTTPPVLDSDGSFFLYSKLTVDKSRWQQGNQFSCSVMHEALHYHVTQKSLSLSP light: not shown",130 nM

# Binders with a lower Kd, results first:
row,Kd,Binder
1,49 nM,"IgG1-F1117 (antibody, VH3-IgG1 with Fc substitutions (EU numbering) + L(WT)-CK) heavy: QVQLQESGPGLVKPSETLSLTCAVSGHSISHDHAWSWVRQPPGEGLEWIGFISYSGITNYNPSLQGRVTISRDNSKNTLYLQMNSLRAEDTAVYYCARSLARTTAMDYWGEGTLVTVSSASTKGPSVFPLAPSSKSTSGGTAALGCLVKDYFPEPVTVSWNSGALTSGVHTFPAVLQSSGLYSLSSVVTVPSSSLGTQTYICNVNHKPSNTKVDKKVEPKSCDKTHTCPPCPAPELLGGPSVFLFPPKPKDVLYISRTPEVTCVVVDVSHEDPEVKFNWYVDGVEVHNAKTKPREEQYNSTYRVVSVLQVLHADWLNGKEYKCKVSNKALPAPIEKTISKAKGQPREPQVYTLPPSRDELTKNQVSLTCLVKGFYPSDIAVEWESNGQPENNYKTTPPVLDSDGSFFLYSKLTVDKSRWQQGNVFNCSVMHEALHYHVTQKSLSLSP light: not shown"
2,13 nM,"IgG1-F1118 (antibody, VH3-IgG1 with Fc substitutions (EU numbering) + L(WT)-CK) heavy: QVQLQESGPGLVKPSETLSLTCAVSGHSISHDHAWSWVRQPPGEGLEWIGFISYSGITNYNPSLQGRVTISRDNSKNTLYLQMNSLRAEDTAVYYCARSLARTTAMDYWGEGTLVTVSSASTKGPSVFPLAPSSKSTSGGTAALGCLVKDYFPEPVTVSWNSGALTSGVHTFPAVLQSSGLYSLSSVVTVPSSSLGTQTYICNVNHKPSNTKVDKKVEPKSCDKTHTCPPCPAPELLGGPSVFLFPPKPKDVLYISRTPEVTCVVVDVSHEDPEVKFNWYVDGVEVHNAKTKPREEQYNSTYRVVSVLQPLHADWLNGKEYKCKVSNKALPAPIEKTISKAKGQPREPQVYTLPPSRDELTKNQVSLTCLVKGFYPSDIAVEWESNGQPENNYKTTPPVLDSDGSFFLYSKLTVDKSRWQQGNVFNCSVMHEALHYHVTQKSLSLSP light: not shown"
3,10 nM,"IgG1-F1120 (antibody, VH3-IgG1 with Fc substitutions (EU numbering) + L(WT)-CK) heavy: QVQLQESGPGLVKPSETLSLTCAVSGHSISHDHAWSWVRQPPGEGLEWIGFISYSGITNYNPSLQGRVTISRDNSKNTLYLQMNSLRAEDTAVYYCARSLARTTAMDYWGEGTLVTVSSASTKGPSVFPLAPSSKSTSGGTAALGCLVKDYFPEPVTVSWNSGALTSGVHTFPAVLQSSGLYSLSSVVTVPSSSLGTQTYICNVNHKPSNTKVDKKVEPKSCDKTHTCPPCPAPELLGGPSVFLFPPKPKDVLYISRTPEVTCVVVDVSHEDPEVKFNWYVDGVEVHNAKTKPREEQYNSTYRVVSVLQPLHADWLNGKEYKCKVSNKALPAPIEKTISKAKGQPREPQVYTLPPSRDELTKNQVSLTCLVKGFYPSDIAVEWESNGQPENNYKTTPPVLDSDGSFFLYSKLTVDKSRWQQGNVFRCSVMHEALHYHVTQKSLSLSP light: not shown"
4,10 nM,"IgG1-F1119 (antibody, VH3-IgG1 with Fc substitutions (EU numbering) + L(WT)-CK) heavy: QVQLQESGPGLVKPSETLSLTCAVSGHSISHDHAWSWVRQPPGEGLEWIGFISYSGITNYNPSLQGRVTISRDNSKNTLYLQMNSLRAEDTAVYYCARSLARTTAMDYWGEGTLVTVSSASTKGPSVFPLAPSSKSTSGGTAALGCLVKDYFPEPVTVSWNSGALTSGVHTFPAVLQSSGLYSLSSVVTVPSSSLGTQTYICNVNHKPSNTKVDKKVEPKSCDKTHTCPPCPAPELLGGPSVFLFPPKPKDVLYISRTPEVTCVVVDVSHEDPEVKFNWYVDGVEVHNAKTKPREEQYNSTYRVVSVLQPLHADWLNGKEYKCKVSNKALPAPIEKTISKAKGQPREPQVYTLPPSRDELTKNQVSLTCLVKGFYPSDIAVEWESNGQPENNYKTTPPVLDSDGSFFLYSKLTVDKSRWQQGNEFSCSVMHEALHYHVTQKSLSLSP light: not shown"
